The numbers were not newly measured in PMC8199105, which cites them from elsewhere.

For the data set, the target named is Albumin (UniProt P02768). The experiment in a line: surface plasmon resonance.

A word on the Kd: it is the free concentration of one partner at which half of the binding sites on the other are occupied at equilibrium, for simple one-to-one binding. Take Cubilin (from UniProt O70244): the dissociation constant Kd was 630 nM.
